Measured values from patent publication US20250289896A1 (ANALYTICAL BIOSCIENCES SHANGHAI, published 2025).
Read-outs that look alike come from different tables or passages of the source.

T1: mCCR8 (UniProt P56484 1-353, limits assumed)
T1 construct: whole, on cells; also called 293T-mCCR8
T1 sequence (looked up): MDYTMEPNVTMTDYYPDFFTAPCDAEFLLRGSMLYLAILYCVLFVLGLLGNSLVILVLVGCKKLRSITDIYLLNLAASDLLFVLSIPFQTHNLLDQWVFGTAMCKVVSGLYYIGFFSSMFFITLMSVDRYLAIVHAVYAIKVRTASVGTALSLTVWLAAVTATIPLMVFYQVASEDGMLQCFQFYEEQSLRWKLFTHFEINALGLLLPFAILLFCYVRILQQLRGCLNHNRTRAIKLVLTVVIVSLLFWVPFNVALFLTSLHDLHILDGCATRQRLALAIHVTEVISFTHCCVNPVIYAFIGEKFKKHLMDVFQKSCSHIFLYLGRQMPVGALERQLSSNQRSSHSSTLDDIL


What was measured:
[1] = molecular target: T2, Human CCR8 (C-C chemokine receptor type 8) (human, UniProt P51685 1-355); test: flow cytometry, human PBMC-derived activated Tregs
T2 construct: overexpressed on HEK293T (293T-hCCR8), Jurkat-hCCR8 and CHEM1-CCR8 cells; also called hCCR8
T2 sequence (P51685 whole entry): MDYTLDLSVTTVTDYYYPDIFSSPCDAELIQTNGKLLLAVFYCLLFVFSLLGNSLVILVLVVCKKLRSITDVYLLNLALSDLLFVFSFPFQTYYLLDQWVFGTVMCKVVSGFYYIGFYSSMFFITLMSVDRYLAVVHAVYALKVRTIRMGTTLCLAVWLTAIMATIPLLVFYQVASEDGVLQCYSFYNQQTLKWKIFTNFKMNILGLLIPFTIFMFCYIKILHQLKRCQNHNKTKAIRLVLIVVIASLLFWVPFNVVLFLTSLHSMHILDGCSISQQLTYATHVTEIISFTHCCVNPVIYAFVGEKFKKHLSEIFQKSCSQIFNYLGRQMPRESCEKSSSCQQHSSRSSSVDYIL
Experimental: (§1) 2.3 Cell-based binding assays for human PBMC-derived activated Tregs Binding specificity of the anti-CCR8 antibodies was tested by FACS using human PBMC-derived activated Tregs. In summary, Tregs were expanded and activated following the manufacturer's protocol (130-095-345, Miltenyi). Briefly, cryopreserved 7-day expanded human PBMC-derived Tregs (SailyBio) were thawed and rested overnight. They were then restimulated with CD3/CD28 MACSiBeads in the presence of rhIL-2 for 24 hours. […] Afterwards, the activated Tregs were plated at 20K/well in 96-well plates, spun down and the supernatant was removed. Cell pellets were then resuspended and incubated with 100 μl of various concentrations of mAbs or a human lgG1 isotype control antibody (biolegend #403501) at 37° C. for 30 min. The final concentrations of antibodies were indicated on x-axis in each figure. The cells were washed three times with FACS buffer (PBS containing 0.5 mg/ml BSA and 1 mM EDTA). PE-labeled goat-anti-human IgG (Invitrogen) diluted in FACS buffer was added to cell pellets as secondary antibodies at a concentration of 3 μg/ml, and the samples were incubated at 4° C. for 30 min. Samples were washed three times with FACS buffer and analyzed using a Cytek Aurora cytometer. Data were analyzed with GraphPad Prism 8.0 software to determine EC50 values.

[2] = molecular target: T2, Human CCR8 (C-C chemokine receptor type …); test: flow cytometry, human PBMC-derived activated Tregs; remark: listed apart in the source
Experimental: as §1
Especially, FIG. 6 and Table 6 show the titration of anti-CCR8 mAbs ABC138-H2.hu13.IgG1.SDIE, ABC025-H2G.SDIE and ABC080.chH2.SDIE to human PBMC-derived activated Treg cells. ABC138-H2.hu13.IgG1.SDIE was developed by mutagenesis in the light chain CDRs of ABC025.H2G.SDIE, which is the humanized clone of ABC080.chH2.SDIE.

[3] = molecular target: T2, Human CCR8 (C-C chemokine receptor type …); test: flow cytometry, Hut78 cells (endogenous human CCR8)
Experimental: (§2) Binding specificity of the anti-CCR8 antibodies (mAbs) was tested by FACS using several cell lines. […] The binding titration of the anti-CCR8 antibodies to CCR8 transfectants was performed by serial dilution of antibodies. The diluted antibody (50 μl) in flow cytometry buffer (PBS, 0.5% BSA, 1 mM EDTA) was incubated with cells (50 μl) at a concentration of 2 million cells/ml on ice for 30 min. After two washes with flow cytometry buffer, bound antibody was detected with Alexa647-labeled F(ab′)2 fragment goat anti-human IgG (Jackson ImmunoResearch #709-606-149) (1:500 dilution) for 20 minutes on ice. The fluorescence was measured on a Cytek Aurora cytometer, after two washes with flow cytometry buffer. The data were analyzed with GraphPad Prism 8.0 software to determine EC50 values.

[4] = molecular target: T2, Human CCR8 (C-C chemokine receptor type …); test: cell-based or functional assay
cynomolgus macaque CCR8 [5] = molecular target: T3, cynomolgus macaque CCR8 (cynomolgus macaque, UniProt G7NYJ2 1-355); test: flow cytometry, 293T cells overexpressing cynomolgus CCR8
T3 construct: whole, on cells; Overexpressed on 293T cells (293T-cCCR8) and Jurkat cells (Jurkat-cynoCCR8); also called cCCR8; cyno CCR8
T3 sequence (G7NYJ2 entry or part of it): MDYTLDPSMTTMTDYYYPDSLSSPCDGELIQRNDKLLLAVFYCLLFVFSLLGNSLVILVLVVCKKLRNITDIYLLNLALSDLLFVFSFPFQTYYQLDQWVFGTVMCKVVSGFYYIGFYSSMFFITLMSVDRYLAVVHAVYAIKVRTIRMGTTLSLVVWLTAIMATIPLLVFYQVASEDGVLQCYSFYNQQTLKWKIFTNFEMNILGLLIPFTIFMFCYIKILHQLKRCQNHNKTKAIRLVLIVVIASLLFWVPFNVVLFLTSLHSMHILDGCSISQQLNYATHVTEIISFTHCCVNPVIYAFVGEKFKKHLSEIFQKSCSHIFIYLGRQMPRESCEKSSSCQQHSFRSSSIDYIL
Experimental: as §2

mCCR8 = molecular target: T1, mCCR8; test: flow cytometry, 293T cells with mCCR8
Experimental: as §2

[6] = molecular target: T2, Human CCR8 (C-C chemokine receptor type …); test: flow cytometry, 293T cells overexpressing human CCR8
Experimental: as §2

cynomolgus macaque CCR8 [7] = molecular target: T3, cynomolgus macaque CCR8; test: cell-based or functional assay
[8] = molecular target: T2, Human CCR8 (C-C chemokine receptor type …); test: cell-based or functional assay; remark: listed apart in the source
[9] = molecular target: T2, Human CCR8 (C-C chemokine receptor type …); test: flow cytometry, 293T cells overexpressing human CCR8; remark: listed apart in the source
Experimental: as §2

[10] = molecular target: T2, Human CCR8 (C-C chemokine receptor type …); test: flow cytometry, Hut78 cells (endogenous human CCR8); remark: listed apart in the source
Experimental: as §2

cynomolgus macaque CCR8 [11] = molecular target: T3, cynomolgus macaque CCR8; test: flow cytometry, 293T cells overexpressing cynomolgus CCR8; remark: listed apart in the source
Experimental: as §2

[12] = molecular target: T2, Human CCR8 (C-C chemokine receptor type …); test: cell-based or functional assay; remark: listed apart in the source

Row | Binder | EC50 [1] [nM] | ADCC killing of Jurkat-hCCR8 cells, IC50 (pM) [4] [pM] | binding result (mCCR8) | EC50 [6] [nM] | ADCC killing of Jurkat-cynoCCR8 cells, IC50 (pM) (cynomolgus macaque CCR8 [7]) | ADCC killing of Hut78 cells, IC50 (pM) [8] [pM] | other results
1 | ABC084.AF (antibody, human IgG1, kappa, V domains shown, Prior art antibody (PCT/EP2021/067504)) VH: EVQLLESGGGLVQPGGSLRLSCAASGFTFSSYGMHWVRQAPGKGLEWVSAINWNGGSTGYADSVKGRFTISRDNSKNTLYLQMNSLRAEDTAVYYCARGHHSGYDGRFFDYWGQGTLVTVSS VL: QSVLTQPPSVSGAPGQRVTISCTGSSSNIGAGYNVHWYQQLPGTAPKLLIYTNNRRPSGVPDRFSGSKSGTSASLAISGLRSEDEADYYCAAWDASLSGWVFGGGTKLTVLR | 33.8 | – | – | – | – | – | –
2 | ABC048-B1.hu11.IgG1.SDIE (antibody, V domains shown, IgG1 with SDIE mutations, by its name; also called ABC048-B1.hull.IgG1.SDIE) VH: EVQLVESGGGLVQPGGSLKLSCAASGFTFNTYAMNWVRQASGKGLEWVARIRSKSNNYATYYADSVKDRFTISRDDSKNTLYLQMNSLKTEDTAVYYCVREVRRDYALDQWGQGTMVTVSS VL: DIVMTQSPLSLPVTPGEPASISCRSSKSLLHSNGNTYLYWFLQKPGQSPQLLIYRMSNLASGVPDRFSGSGSGTDFTLKISRVEAEDVGVYYCMQHVEYPFTFGGGTKLEIKR | 0.521 | – | – | – | – | – | –
3 | ABC025-H2G.SDIE (antibody, human IgG1, kappa, Humanized clone of ABC080.chH2.SDIE; Fc with SDIE mutation) heavy: not shown light: DIVMTQSPLSLPVTPGEPASISCRSSQSLLHSNANTYLYWFLQKPGQSPQLLIYRMSNLASGVPDRFSGSGSGTDFTLKISRVEAEDVGVYYCMQHLEYPFTFGQGTKLEIKRTVAAPSVFIFPPSDEQLKSGTASVVCLLNNFYPREAKVQWKVDNALQSGNSQESVTEQDSKDSTYSLSSTLTLSKADYEKHKVYACEVTHQGLSSPVTKSFNRGEC | 1.78 | – | – | – | – | – | EC50 [2]: 0.38 nM
4 | ABC138-H2.hu13.IgG1.SDIE (antibody, V domains shown, Developed by mutagenesis in the light chain CDRs of ABC025.H2G.SDIE; IgG1 with SDIE mutations; also called ABC0138.H2.Hu13.SDIE) VH: EVQLVESGGGLVQPGGSLRLSCAASGFPFNTFAMNWVRQAPGKGLEWLARIRSKSNNYATYYADSVKDRFTISRDNAKRSLYLQMNSLRAEDTAVYYCVRGKENNYGYAMDYWGQGTTVTVSS VL: DIVMTQSPLSLPVTPGEPASISCRSSKSLLHSNANTYLYWFLQKPGQSPQLLIYRMSNLASGVPDRFSGSGSGTDFTLKISRVEAEDVGVYYCMQHVEYPFTFGGGTKLEIKR | 0.579 | 2.09 | no binding | 0.0237 | 62.9 | 0.652 | EC50 [3]: 0.102 nM; binding result (cynomolgus macaque CCR8 [5]): no binding; EC50 [2]: 0.105 nM
5 | ABC822 (antibody, human IgG1, kappa, V domains shown) VH: EVQLVESGGGLMQPGRSLKLSCAASGFSFSDYYMAWVRQAPKKGLEWVASISNAGTKTYYGDSVKGRFTISRDDAKSTLYLQMNSLRSEDTATYYCVRQDLYYGRNQYWYFDFWGPGTMVTVSS VL: IVMTQSPTSMSKSVGDRVTMNCKASQSVGSNVDWYQQKTGQSPKLLIYKTSSRFTGVPDRFTGSGSRTDFTFTISSMQAEDLALYYCVQSNSYPYTFGAGTKLELKR | – | 9.68 | no binding | 0.0684 | 7.19 | 6.31 | EC50 [3]: 3.16 nM; EC50 [9]: 0.269 nM; EC50 (cynomolgus macaque CCR8 [5]): 0.0938 nM; EC50 [10]: 2.92 nM; EC50 (cynomolgus macaque CCR8 [11]): 0.464 nM
6 | ABC078.AF (antibody, human IgG1, kappa, V domains shown, Prior art antibody (PCT/US2021/023430); also called BMS-986340) VH: QVQLVQSGAEVKKPGASVKVSCKASGYTFTDSEMHWVRQATGQGLEWMGAIQPETGGTAYNQKFKARVTMTRDTSISTAYMELSSLRSEDTAVYYCARRRRNFDYWGQGTLVTVSS VL: DIVMTQTPLSLSVTPGQPASISCRSSQSLFHSSGNTYLHWYLQKPGQPPQLLIYKVSNRFSGVPDRFSGSGSGTDFTLKISRVEAEDVGVYYCSQSTHVPFTFGQGTKLEIKR | 0.729 | 2.79 | – | – | 346 | 0.637 | –
7 | ABC078 (antibody, V domains shown) VH: QVQLVQSGAEVKKPGASVKVSCKASGYTFTDSEMHWVRQATGQGLEWMGAIQPETGGTAYNQKFKARVTMTRDTSISTAYMELSSLRSEDTAVYYCARRRRNFDYWGQGTLVTVSS VL: DIVMTQTPLSLSVTPGQPASISCRSSQSLFHSSGNTYLHWYLQKPGQPPQLLIYKVSNRFSGVPDRFSGSGSGTDFTLKISRVEAEDVGVYYCSQSTHVPFTFGQGTKLEIKR | – | – | no binding | 0.0282 | – | – | EC50 [3]: 0.648 nM; binding result (cynomolgus macaque CCR8 [5]): no binding
8 | ChH2-AF (antibody, human IgG1, kappa) heavy: not shown light: DIVMTQAAPSVPVTPGESVSISCRSSQSLLHSNGNTYLYWFLQRPGQSPQLLIYRMSNLASGVPDRFSGSGSGTAFTLRISRVEAEDVGVYYCMQHLEYPFTFGIGTKLELKRTVAAPSVFIFPPSDEQLKSGTASVVCLLNNFYPREAKVQWKVDNALQSGNSQESVTEQDSKDSTYSLSSTLTLSKADYEKHKVYACEVTHQGLSSPVTKSFNRGEC | – | – | – | – | – | – | ADCC killing of TALL-1 cells, Median EC50 (pM) [12]: 2.55 pM
9 | ChB1-AF (antibody, human IgG1, kappa) heavy: not shown light: DIVMTQAAPSVVVTPGESVSISCRSSKSLLHSNGNTYLYWFLQRPGQSPQLLIYRMSNLASGVPDRFSGSGSGTAFTLRISRVEAEDVGVYYCMQHVEYPFTFGGGTKVQIKRTVAAPSVFIFPPSDEQLKSGTASVVCLLNNFYPREAKVQWKVDNALQSGNSQESVTEQDSKDSTYSLSSTLTLSKADYEKHKVYACEVTHQGLSSPVTKSFNRGEC | – | – | – | – | – | – | ADCC killing of TALL-1 cells, Median EC50 (pM) [12]: 9.8 pM
10 | ABC080.chH2.SDIE (antibody, Chimeric antibody with SDIE Fc; ABC025.H2G.SDIE is its humanized clone) heavy: not shown light: DIVMTQAAPSVPVTPGESVSISCRSSQSLLHSNGNTYLYWFLQRPGQSPQLLIYRMSNLASGVPDRFSGSGSGTAFTLRISRVEAEDVGVYYCMQHLEYPFTFGIGTKLELKRTVAAPSVFIFPPSDEQLKSGTASVVCLLNNFYPREAKVQWKVDNALQSGNSQESVTEQDSKDSTYSLSSTLTLSKADYEKHKVYACEVTHQGLSSPVTKSFNRGEC | – | – | – | 0.135 | – | – | EC50 [2]: 0.38 nM
11 | ABC1183 (antibody, human IgG1, kappa, V domains shown, Humanized format of ABC822) VH: EVQLLESGGGLVQPGGSLRLSCAASGFSFSDYYMAWVRQAPGKGLEWVASISNAGTKTYYGDSVKGRFTISRDDSKNTLYLQMNSLRAEDTAVYYCVRQDLYYGRNQYWYFDFWGRGTLVTVSS VL: DIQMTQSPSSLSASVGDRVTITCKASQSVGSNVDWYQQKPGKSPKLLIYKTSSRFTGVPSRFSGSGSRTDFTLTISSLQPEDFATYYCVQSNSYPYTFGAGTKLELKR | – | 1.8 | no binding | – | 6.15 | 7.95 | EC50 [9]: 0.373 nM; EC50 [10]: 4.12 nM; EC50 (cynomolgus macaque CCR8 [11]): 0.445 nM
